{"source": "patent US20040014194", "biological_target": "T1, Biotin-KSEVNL*DAEFRK-Fluorescein (SEQ ID NO: 3), peptide substrate derived from the sequence of \"Swedish\" amyloid protein peptide", "T1 chain": "KSEVNLDAEFRK"}
{"protein": "mature BACE (SEQ ID NO: 1), Sf9-derived glycosylated human β-secretase (protein) ETDEEPEEPGRRGSFVEMVDNLRGKSGQGYYVEMTVGSPPQTLNILVDTGSSNFAVGAAPHPFLHRYYQRQLSSTYRDLRKGVYVPYTQGKWEGELGTDLVSIPHGPNVTVRANIAAITESDKFFINGSNWEGILGLAYAEIARPDDSLEPFFDSLVKQTHVPNLFSLQLCGAGFPLNQSEVLASVGGSMIIGGIDHSLYTGSLWYTPIRREWYYEVIIVRVEINGQDLKMDCKEYNYDKSIVDSGTTNLRLPKKVFEAAVKSIKAASSTEKFPDGFWLGEQLVCWQAGTTPWNIFPVISLYLMGEVTNQSFRITILPQQYLRPVEDVATSQDDCYKFAISQSSTGTVMGAVIMEGFYVVFDRARKRIGFAVSACHVHDEFRTAAVEGPFVTLDMEDCGYNIPQTDESTLE", "values": [{"measurement": "specificity constant (kcat/Km)", "result": "1500 ± 100", "unit": "M⁻¹ s⁻¹"}]}
{"protein": "ProBACE (SEQ ID NO: 2), Sf9-derived soluble pro-β-secretase (protein) TQHGIRLPLRSGLGGAPLGLRLPRETDEEPEEPGRRGSFVEMVDNLRGKSGQGYYVEMTVGSPPQTLNILVDTGSSNFAVGAAPHPFLHRYYQRQLSSTYRDLRKGVYVPYTQGKWEGELGTDLVSIPHGPNVTVRANIAAITESDKFFINGSNWEGILGLAYAEIARPDDSLEPFFDSLVKQTHVPNLFSLQLCGAGFPLNQSEVLASVGGSMIIGGIDHSLYTGSLWYTPIRREWYYEVIIVRVEINGQDLKMDCKEYNYDKSIVDSGTTNLRLPKKVFEAAVKSIKAASSTEKFPDGFWLGEQLVCWQAGTTPWNIFPVISLYLMGEVTNQSFRITILPQQYLRPVEDVATSQDDCYKFAISQSSTGTVMGAVIMEGFYVVFDRARKRIGFAVSACHVHDEFRTAAVEGPFVTLDMEDCGYNIPQTDESTLE", "values": [{"measurement": "specificity constant (kcat/Km)", "result": "1500 ± 100", "unit": "M⁻¹ s⁻¹"}]}
